Laboratory results published in US20200283521A1 (GRANULAR THERAPEUTICS, published 2020).

Key:
Experiment in all cases: cell array, transfected fixed HEK293 cells
ANXA6 = biological target: T1, ANXA6 (human, UniProt P08133)
T1 construct: expressed in transfected HEK293 cells
T1 sequence (looked up): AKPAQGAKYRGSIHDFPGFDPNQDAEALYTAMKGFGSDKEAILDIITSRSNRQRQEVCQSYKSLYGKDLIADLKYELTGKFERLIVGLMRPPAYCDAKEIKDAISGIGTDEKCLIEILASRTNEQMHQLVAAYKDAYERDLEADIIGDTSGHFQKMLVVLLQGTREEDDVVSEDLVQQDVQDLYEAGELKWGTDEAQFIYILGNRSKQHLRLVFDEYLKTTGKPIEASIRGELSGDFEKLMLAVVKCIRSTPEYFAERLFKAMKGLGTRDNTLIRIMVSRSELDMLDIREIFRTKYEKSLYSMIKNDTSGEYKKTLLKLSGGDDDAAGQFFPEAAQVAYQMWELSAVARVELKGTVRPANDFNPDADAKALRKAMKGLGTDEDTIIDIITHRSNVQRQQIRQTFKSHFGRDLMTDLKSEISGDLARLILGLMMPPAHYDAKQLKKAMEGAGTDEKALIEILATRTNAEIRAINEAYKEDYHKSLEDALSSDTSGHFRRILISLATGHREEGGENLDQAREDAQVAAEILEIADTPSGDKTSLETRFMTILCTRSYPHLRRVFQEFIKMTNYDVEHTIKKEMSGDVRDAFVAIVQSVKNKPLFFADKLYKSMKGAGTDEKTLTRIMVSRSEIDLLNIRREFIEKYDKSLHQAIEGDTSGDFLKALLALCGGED
Description: (§1) Transfection of all plasmids was confirmed by screening for the co-encoded marker ZS green (FIG. 13A).
(§2) Primary hits (duplicate spots) were identified by analysing fluorescence (AF647 and ZsGreenl) on ImageQuant. Vectors encoding all hits were sequenced to confirm their correct identities. […] Slides were analysed as above.

SLMAP = biological target: T2, SLMAP (human, UniProt Q14BN4)
T2 construct: expressed in transfected HEK293 cells
T2 sequence (looked up): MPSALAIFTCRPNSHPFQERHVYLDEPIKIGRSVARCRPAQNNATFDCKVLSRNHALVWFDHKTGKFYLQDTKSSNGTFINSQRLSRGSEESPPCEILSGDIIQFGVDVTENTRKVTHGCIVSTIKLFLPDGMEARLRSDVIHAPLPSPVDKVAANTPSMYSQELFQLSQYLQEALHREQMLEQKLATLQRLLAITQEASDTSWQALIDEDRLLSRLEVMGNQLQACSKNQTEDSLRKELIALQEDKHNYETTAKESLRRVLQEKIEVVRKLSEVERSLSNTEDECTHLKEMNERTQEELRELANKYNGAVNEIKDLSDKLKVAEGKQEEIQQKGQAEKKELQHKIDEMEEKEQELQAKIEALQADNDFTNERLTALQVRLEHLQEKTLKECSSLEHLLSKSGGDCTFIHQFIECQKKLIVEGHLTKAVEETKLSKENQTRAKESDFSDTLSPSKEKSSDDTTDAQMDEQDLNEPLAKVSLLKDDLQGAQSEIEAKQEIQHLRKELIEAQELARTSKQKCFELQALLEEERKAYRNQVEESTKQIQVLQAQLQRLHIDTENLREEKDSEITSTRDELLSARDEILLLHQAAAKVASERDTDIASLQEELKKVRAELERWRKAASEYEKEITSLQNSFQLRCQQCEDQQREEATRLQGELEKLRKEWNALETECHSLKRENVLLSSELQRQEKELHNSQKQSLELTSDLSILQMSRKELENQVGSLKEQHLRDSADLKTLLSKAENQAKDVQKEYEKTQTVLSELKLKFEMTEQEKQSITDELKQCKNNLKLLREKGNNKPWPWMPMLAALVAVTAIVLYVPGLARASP
Description: as §1, §2

PPT1 = biological target: T3, PPT1 (human, UniProt P50897)
T3 construct: expressed in transfected HEK293 cells
T3 sequence (looked up): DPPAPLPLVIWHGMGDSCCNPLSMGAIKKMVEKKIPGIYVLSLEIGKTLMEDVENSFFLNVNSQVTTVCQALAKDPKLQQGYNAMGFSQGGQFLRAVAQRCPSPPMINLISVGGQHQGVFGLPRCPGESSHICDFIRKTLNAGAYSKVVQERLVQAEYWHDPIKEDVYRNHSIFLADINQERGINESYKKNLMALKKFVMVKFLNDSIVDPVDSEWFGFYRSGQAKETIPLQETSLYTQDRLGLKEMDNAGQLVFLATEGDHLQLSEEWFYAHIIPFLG
Description: as §1, §2

EDN2 = biological target: T4, EDN2 (human, UniProt P20800)
T4 construct: expressed in transfected HEK293 cells
T4 sequence (looked up): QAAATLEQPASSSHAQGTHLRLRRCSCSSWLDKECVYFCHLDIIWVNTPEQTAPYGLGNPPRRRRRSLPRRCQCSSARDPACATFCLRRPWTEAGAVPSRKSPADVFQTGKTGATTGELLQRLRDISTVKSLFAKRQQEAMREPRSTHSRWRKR
Description: as §1, §2

EDN1 = biological target: T5, EDN1 (human, UniProt P05305)
T5 construct: expressed in transfected HEK293 cells
T5 sequence (looked up): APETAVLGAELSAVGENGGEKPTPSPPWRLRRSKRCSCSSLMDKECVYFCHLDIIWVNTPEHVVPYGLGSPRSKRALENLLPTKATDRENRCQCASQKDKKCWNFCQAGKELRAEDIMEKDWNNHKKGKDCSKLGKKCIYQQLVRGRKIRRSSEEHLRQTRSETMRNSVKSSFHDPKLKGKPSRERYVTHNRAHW
Description: as §1, §2

OSM = biological target: T6, OSM (human, UniProt P13725)
T6 construct: expressed in transfected HEK293 cells
T6 sequence (looked up): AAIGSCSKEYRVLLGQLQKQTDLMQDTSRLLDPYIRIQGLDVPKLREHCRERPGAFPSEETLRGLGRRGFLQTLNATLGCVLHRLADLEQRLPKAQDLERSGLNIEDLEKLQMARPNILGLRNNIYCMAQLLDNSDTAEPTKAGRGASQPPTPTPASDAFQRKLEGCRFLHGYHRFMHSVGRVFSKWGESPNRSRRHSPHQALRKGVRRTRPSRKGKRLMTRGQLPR
Description: as §1, §2

DES = biological target: T7, DES (human, UniProt P17661)
T7 construct: expressed in transfected HEK293 cells
T7 sequence (P17661 2-470 limits assumed): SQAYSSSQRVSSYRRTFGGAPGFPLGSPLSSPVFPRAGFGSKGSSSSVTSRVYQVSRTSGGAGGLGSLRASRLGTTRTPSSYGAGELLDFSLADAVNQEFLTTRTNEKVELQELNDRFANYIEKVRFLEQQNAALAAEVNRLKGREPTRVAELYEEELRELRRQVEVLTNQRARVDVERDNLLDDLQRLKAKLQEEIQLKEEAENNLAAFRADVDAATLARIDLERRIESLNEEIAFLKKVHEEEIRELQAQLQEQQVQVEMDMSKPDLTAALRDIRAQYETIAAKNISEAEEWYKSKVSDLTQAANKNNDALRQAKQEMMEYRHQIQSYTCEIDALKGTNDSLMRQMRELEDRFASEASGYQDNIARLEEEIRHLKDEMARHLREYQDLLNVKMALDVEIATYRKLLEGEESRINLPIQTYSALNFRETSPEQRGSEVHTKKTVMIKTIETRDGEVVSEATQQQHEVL
Description: as §1, §2

binding result (ANXA6): no binding (tested: 2 µg/ml) | binding result (SLMAP): no binding (tested: 2 µg/ml) | binding result (PPT1): no binding (tested: 2 µg/ml) | binding result (EDN2): no binding (tested: 2 µg/ml) | binding result (EDN1): no binding (tested: 2 µg/ml) | binding result (OSM): no binding (tested: 2 µg/ml) | binding result (DES): no binding (tested: 2 µg/ml)
B1: MH1, human IgG1 (antibody, V domains shown)
VH: QVQLVQSGAEVKKPGASVKVSCKASGYTFTDYYMNWVRQAPGQGLEWMGRIYPGSGNTYYAQKFQGRVTMTRDTSTSTVYMELSSLRSEDTAVYYCARGVYYYDYWGQGTLVTVSS
VL: DIQMTQSPSSLSASVGDRVTITCRASQGIRTNLAWFQQKPGKAPKSLIYAASSLQSGVPSRFSGSGSGTDFTLTISSLQPEDFATYYCQQYNSYPRTFGGGTKVEIK
notes: IgG1; also called IgG1-MH1
